Experiments:
endothelial cells [1] = test: flow cytometric quantification of Annexin V-staining (apoptosis); format: cell-based, human; details: compared to irrelevant control sequence, FIG. 3
Source text: (§1) To assess whether the observed differences were secondary to effects on cellular viability, endothelial cell apoptosis and proliferation following miR-100 modulation was checked. […] DNA-synthesis rate was further analyzed by measuring BrdU-Incorporation, which correlates well with cellular proliferation.

endothelial cells [2] = test: planar matrigel assay, endothelial network formation; format: cell-based, human
endothelial cells [3] = test: BrdU-Incorporation (proliferation), endothelial cells; format: cell-based, human; details: FIG. 3
Source text: as §1

mTOR (FRAP1-gene) = test: microarray based gene expression analysis of endothelial cells following miR-100 overexpression (mTOR); format: cell-based, human
Source text: Using a combination of bioinformatic prediction algorithms and microarray based gene expression analysis of endothelial cells following miR-100 overexpression, it was searched for potential target genes of miR-100 that could be responsible for the observed effects.

E-Selectin (SELE) = test: Agilent microarray after miR-100 overexpression in endothelial cells, E-Selectin; format: cell-based, human; details: 48 hours after transfection vs control oligonucleotide, FIG. 12
Method: (§2) After discovering the high baseline expression of miR-100 in endothelial cells and its downregulation in response to vascular injury and ischemia, the function of this microRNA in endothelial cells (EC) was investigated. Therefore, miR-100 was overexpressed in EC by transfecting a synthetic miR-100 precursor molecule (pre-mir) and analysed global mRNA gene expression changes compared to transfection with a control oligonucleotide at 48 hours after transfection on a human Agilent 4×44 k microarray platform.
(§3) Microarray results were analysed both on individual gene level as well as by biological pathway analysis using the “Panther Pathways Analysis” Tool that tests changes in gene expression for enrichment of specific biological pathways or cellular functions.
(§4) Endothelial cells were transfected with miR-100 precursor oligonucleotides. Total RNA was isolated after 48 h for microarray analysis of global gene expression.

ICAM-1 [4] = test: ICAM-1 protein expression in endothelial cells (Western blot); format: cell-based, human
Method: (§5) MiRNA-100 was overexpressed in human endothelial cells followed by protein isolation. Using Western blots, the protein expression of VCAM-1, ICAM-1 and E-Selectin was determined. FIGS. 14A and B show the ratio between volume intensity of the protein-samples and the loading control (β-tubulin) for [A] the baseline expression and [B] the expression after 24 h TNF-α stimulation.

mTOR = mTOR expression in endothelial cells after miR-100 modulation; format: cell-based, human; details: FIG. 5
Method: The binding site of miR-100 in the 3′-UTR of mTOR is shown in (FIG. 6.) In FIG. 6 the sequence designated hsa-miR-100 corresponds to SEQ ID NO:1 and the sequence having the designation mTOR 3′UTR corresponds to SEQ ID NO:7.
(§6) For transfection with pre-miR microRNA precursor molecules or anti-miRmiRNA inhibitors (all Ambion), cells were cultured to 70% confluence and transfected with 8nM pre-miR-100 or anti-miR-100 oligonucleotides using Lipofectamin RNAiMax (invitrogen) according to the manufacturers instructions. For transfection of HEK293 cells with mTOR plasmids, 2 μg DNA per 3×10E5 cells was transfected with Fugene 6 transfection reagent (Roche). For double transfection of plasmids with miRNA-precursors and inhibitors, pre- and anti-miRs were added to the plasmid/Fugene transfection mix in the same final concentrations as stated above. mTOR (Acc. NM004958) full length (SKU SC124066) and ORF-constructs (SKU RC220457) were obtained from the Origene collection (Origene, Rockville, Md.).

endothelial cells [5] = test: three-dimensional spheroid culture assay, endothelial sprouting; format: cell-based, human
miR-100 = miR-100 level by quantitative stem-loop RT-PCR after pre-miR/anti-miR transfection; format: cell-based, human; details: 24 h following transfection; vs irrelevant-sequence controls; FIG. 2
Source text: To verify the expression of miR-100 in pure cell populations of the vascular wall, stem-loop RT-PCR was used for total RNA-isolates from cultured human endothelial cells (HUVECs) and human aortic vascular smooth muscle cells.
MicoRNA expression was validated by quantitative stem-loop PCR technology (TaqMan MicroRNA Assays, Applied Biosystems, Foster City, Calif.). The use of target-specific reverse transcription primers and TaqMan hybridization probes allows the specific detection of mature microRNAs. MicroRNA expression was normalized to the expression of the small RNAs rnu19 and rnu48.
miR-100 was strongly expressed in both cell types. To investigate a potential role of miR-100 for angiogenesis, miR-100 was overexpressed and silenced in these cell types by transfecting specific miR-100 precursors (pre-miRs) or antisense-molecules (anti-miRs), respectively. […] Pre- and anti-miRs with an irrelevant nucleotide sequence served as negative controls. There was no significant difference in cellular viability following transfection with the different compounds.
For transfection with pre-miR microRNA precursor molecules or anti-miRmiRNA inhibitors (all Ambion), cells were cultured to 70% confluence and transfected with 8nM pre-miR-100 or anti-miR-100 oligonucleotides using Lipofectamin RNAiMax (invitrogen) according to the manufacturers instructions. […]

VCAM-1 [6] = test: VCAM-1 protein expression in endothelial cells (Western blot); format: cell-based, human
Method: as §5

HEK293 cells = test: HEK cell proliferation, rescue-experiment with mTOR plasmids; format: cell-based, human; details: 8nM oligonucleotide; FIG. 7
Method: To investigate if the repression of mTOR was responsible for the observed attenuation of cellular proliferation by miR-100, a rescue-experiment was performed by transfecting mTOR-coding plasmids in combination with pre-miR-100.
as §6
Due to the large plasmid size of mTOR, it was not possible to achieve a sufficient transfection rate in endothelial cells without procedure-related toxic effects and therefore the easily transfected HEK-cells were chosen as a culture model, where the miR-100 effects on proliferation seen in endothelial cells could be reproduced (FIG. 7).

E-Selectin [7] = test: E-Selectin protein expression in endothelial cells (Western blot); format: cell-based, human
Method: as §5

[8] = tested on: cultured cancer cells (oral squamous cell carcinoma); details: Henson et al. 2009; cited from earlier work
E-Selectin [9] = test: E-Selectin mRNA expression in endothelial cells (Taqman PCR); format: cell-based, human; details: vs scrambled premiR control; FIG. 13
Method: (§7) Human endothelial cells were transfected with premiR-100 and scrambled premiR control oligonucleotides. After RNA isolation, the relative expression rate of the mRNA of different adhesion molecules was measured using the Stem loop Taqman PCR (P value≦0.005).

[10] = tested on: vascular smooth muscle cells; test: BrdU-Incorporation (proliferation), smooth muscle cells; format: cell-based, human; details: FIG. 4
ICAM-1 [11] = test: ICAM-1 mRNA expression in endothelial cells (Taqman PCR); format: cell-based, human; details: vs scrambled premiR control; FIG. 13
Method: as §7

VCAM-1 [12] = test: Agilent microarray after miR-100 overexpression in endothelial cells, VCAM-1; format: cell-based, human; details: 48 hours after transfection vs control oligonucleotide, FIG. 12
Method: as §2, §3, §4

VCAM-1 [13] = test: VCAM-1 mRNA expression in endothelial cells (Taqman PCR); format: cell-based, human; details: vs scrambled premiR control; FIG. 13
Method: as §7

HUVECs / human PBMCs = test: Leukocyte-HUVEC interaction under flow conditions (flow chamber); format: cell-based; details: TNF-alpha 30 ng/ml for 24 h, flow 1 dyn/cm^2; FIG. 15
Method: HUVECs were grown to confluence, transfected with either anti-miR-100 or pre-Mir-100 oligonucelotides or scrambled controls and stimulated with TNF-alpha 30 ng/ml for 24 h. Human PBMCs (HPBMCs) were obtained from buffy coats of healthy donors by Ficoll-Hypaque density gradient centrifugation. The flow chamber was assembled and placed onto an inverted microscope stage, and freshly isolated HPBMCs (1×10^6/ml) were perfused across the endothelial monolayers. In all experiments, leukocyte interactions were determined over 105 min at 1 dyn/cm^2. Cells interacting on the surface of the endothelium were visualized and recorded using phase-contrast microscopy.
To test if this change in expression results in a functional difference in leukocyte rolling and adhesion to the endothelial surface, the attachment of isolated peripheral blood mononuclear cells (PBMC) to transfected endothelial cells was investigated under physiologic flow conditions in a flow chamber apparatus.
A physiological venous blood flow (1 dynes/cm^2) was induced by a flow chamber apparatus and the number of rolling or adherent peripheral blood mononuclear cells (PBMCs) was counted.

[14] = after 24 h TNF-α stimulation, FIG. 14B

B1: pre-miR-100: synthetic miR-100 precursor molecule, SEQ ID No. 8, used to overexpress miR-100; processed to mature miRNA-100 (SEQ ID No: 9) (nucleic acid)
chain: CCUGUUGCCACAAACCCGUAGAUCCGAACUUGUGGUAUUAGUCCGCACAAGCUUGUAUCUAUAGGUAUGUGUCUGUUAGG
modifications: listed as RNA, chemistry not given here
endothelial cell apoptosis (endothelial cells [1]): slight increase in endothelial cell apoptosis
endothelial network formation (endothelial cells [2]): significant inhibitory effect
endothelial cell proliferation (DNA-synthesis rate) (endothelial cells [3]): significant attenuation of endothelial cell proliferation
mTOR (FRAP1) gene expression (mTOR (FRAP1-gene)): downregulated
E-Selectin (SELE) gene expression (E-Selectin (SELE)): strong downregulation
ICAM-1 protein, upregulation after TNF-α stimulation (ICAM-1 [4]; [14]): blunts the upregulation in response to inflammatory stimuli
ICAM-1 protein, baseline expression (ICAM-1 [4]; ratio to β-tubulin, FIG. 14A): decreases baseline expression
mTOR-expression on both mRNA as well as protein level (mTOR): significantly repressed
endothelial sprouting (total sprout length) (endothelial cells [5]): significant inhibitory effect
detectable miR-100 (relative miR-100 expression) (miR-100): strong increase in detectable miR-100
VCAM-1 protein, upregulation after TNF-α stimulation (VCAM-1 [6]; [14]): blunts the upregulation in response to inflammatory stimuli
VCAM-1 protein, baseline expression (VCAM-1 [6]; ratio to β-tubulin, FIG. 14A): decreases baseline expression
cell proliferation of HEK cells (HEK293 cells): anti-proliferative effect
E-Selectin protein, upregulation after TNF-α stimulation (E-Selectin [7]; [14]): blunts the upregulation in response to inflammatory stimuli
E-Selectin protein, baseline expression (E-Selectin [7]; ratio to β-tubulin): decreases baseline expression
cell proliferation [8]: significantly reduced cell proliferation
E-Selectin mRNA relative expression (E-Selectin [9]): decrease
inhibitory effect on proliferation, smooth muscle cells compared with endothelial cells [10]: more pronounced in endothelial cells than in smooth muscle cells
ICAM-1 mRNA relative expression (ICAM-1 [11]): decrease
VCAM-1 gene expression (VCAM-1 [12]): strong downregulation
VCAM-1 mRNA relative expression (VCAM-1 [13]): decrease
leukocyte (PBMC) adhesion to transfected endothelial cells (HUVECs / human PBMCs): significantly attenuates leukocyte adhesion

Source: patent US20140377324A1, “Pharmaceutical Composition Comprising miRNA-100 And Its Use In The Modulation of Blood Vessel Growth and Endothelial Inflammation” (Universitatsklinikum Freiburg, priority 2009, published 2014)
